According to US20220362394A1 (SUTRO BIOPHARMA, published 2022):
Read-outs that look alike come from different tables or passages of the source. Values belong to the binder of their own block, whether it stands above or below them.

Assays:
human BCMA on cells [1] = target: T1, human BCMA on cells (human, UniProt Q02223 1-184); test: cell-based or functional assay
T1 sequence: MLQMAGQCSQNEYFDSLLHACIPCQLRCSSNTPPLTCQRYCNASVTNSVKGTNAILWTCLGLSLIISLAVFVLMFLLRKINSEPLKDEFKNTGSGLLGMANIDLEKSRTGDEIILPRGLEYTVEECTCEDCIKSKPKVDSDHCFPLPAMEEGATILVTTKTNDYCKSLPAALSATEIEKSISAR

mouse BCMA on cells = target: T2, mouse BCMA on cells (mouse, UniProt O88472 1-185); test: FACS, 293T-mBCMA cells; NB: No binding
T2 construct: HEK293T cells transfected with plasmid encoding mouse BCMA (Invivogen)
T2 sequence: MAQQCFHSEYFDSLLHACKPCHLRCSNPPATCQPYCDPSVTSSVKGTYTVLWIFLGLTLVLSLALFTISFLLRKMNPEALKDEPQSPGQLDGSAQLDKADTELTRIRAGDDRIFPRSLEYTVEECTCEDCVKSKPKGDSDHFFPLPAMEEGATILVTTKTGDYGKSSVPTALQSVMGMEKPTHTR
Method: Cells were plated in 96-well plates (100 k per well) and incubated with antibodies (titrated half-log serial dilutions from 200 nM) for 1 hour on ice. […] Cells were analyzed using a BD LSR-Fortessa X-20 flow cytometry system. FACS data were analyzed using Flowjo software to calculate geometric fluorescence intensity (gMFI) (n=3 replicates) and data (geo. Mean MFI+/−SEM versus log nM Ab) were generated using GraphPad Prism software.

human BCMA on cells [2] = target: T1, human BCMA on cells; test: cell-based or functional assay; remark: listed apart in the source
cynomolgus BCMA on cells = cynomolgus BCMA on cells (cynomolgus monkey, UniProt Q02223 1-184 (human entry)); test: FACS, 293T-cBCMA cells
Chain of cynomolgus BCMA on cells (Q02223 other isoform, or with tags, fused parts or gaps): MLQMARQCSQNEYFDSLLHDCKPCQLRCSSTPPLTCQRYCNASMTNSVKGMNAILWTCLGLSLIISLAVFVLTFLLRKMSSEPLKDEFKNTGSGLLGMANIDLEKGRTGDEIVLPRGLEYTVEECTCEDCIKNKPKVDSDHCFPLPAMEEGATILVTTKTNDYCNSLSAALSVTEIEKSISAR
Method: (§2) Cells were collected, washed and resuspended in FACS buffer (DPBS buffer with 1% bovine serum albumin and 0.05% v/v sodium azide). […] Ab binding was detected with phycoerythrin-conjugated anti-human Fc Ab (Jackson ImmunoResearch, West Grove, Pa.) for 1 hour on ice. Cells were analyzed using a BD FACS Canto system.

human BCMA on cells [3] = target: T1, human BCMA on cells; test: FACS, RPMI-8226 cells
Method: (§1) Cells were analyzed using a BD FACS Canto system. Fluorescence-activated cell sorting (FACS) data were analyzed using Flowjo software to calculate mean fluorescence intensity (MFI) (n=3 replicates) and data (mean MFI+/−standard error of the mean [SEM] versus nM of the antibody) was generated using the GraphPad Prism software.

human BCMA on cells [4] = target: T1, human BCMA on cells; test: FACS, OPM-2 cells
Method: as §1

human BCMA on cells [5] = target: T1, human BCMA on cells; test: FACS, U266B1 cells
Method: as §1

human BCMA on cells [6] = target: T1, human BCMA on cells; test: FACS, MM.1S cells
Method: as §1

human BCMA on cells [7] = target: T1, human BCMA on cells; test: cell-based or functional assay; remark: listed apart in the source
human BAFF-R on cells = target: T3, human BAFF-R on cells (human, UniProt Q96RJ3 1-184); test: flow cytometry on 293T cells stably expressing human BAFF-R, detected with PE-conjugated anti-human Fc antibody
T3 construct: whole, on cells; also called TNFRSF13C
Method: (§3) Cells were plated in 96-well plates (100K per well) and incubated with Abs. […] ADC binding was detected with phycoerythrin-conjugated anti-human Fc Ab (Jackson ImmunoResearch, West Grove, Pa.) for 1 hour on ice. Cells were analyzed using a BD FACS Canto system. FACS data were analyzed using Flowjo software to generate cell binding histograms.

human TACI on cells = target: T4, human TACI on cells (human, UniProt O14836 1-293); test: flow cytometry on 293T cells stably expressing human TACI, detected with PE-conjugated anti-human Fc antibody
T4 construct: whole, on cells; also called TNFRSF13B
T4 sequence (looked up): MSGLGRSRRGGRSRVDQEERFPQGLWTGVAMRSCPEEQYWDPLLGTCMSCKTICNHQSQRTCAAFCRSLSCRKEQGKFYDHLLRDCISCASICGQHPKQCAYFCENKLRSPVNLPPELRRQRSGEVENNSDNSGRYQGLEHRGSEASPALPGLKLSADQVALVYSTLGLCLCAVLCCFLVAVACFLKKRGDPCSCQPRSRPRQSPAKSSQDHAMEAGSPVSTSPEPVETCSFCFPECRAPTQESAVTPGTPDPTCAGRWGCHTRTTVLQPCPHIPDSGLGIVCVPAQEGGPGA
Method: as §3

human BCMA on cells [8] = target: T1, human BCMA on cells; test: FACS, NCI-H929 cells
Method: as §1

human BCMA on cells [9] = target: T1, human BCMA on cells; test: FACS, ARP-1 cells
Method: as §1

human BCMA on cells [10] = target: T1, human BCMA on cells; test: FACS, 293T-hBCMA cells
Method: as §2

binding result (mouse BCMA on cells): no binding (tested: 200 nM)
Kd (cynomolgus BCMA on cells): 2.7 nM
Kd (human BCMA on cells [3]): 1.8 nM
Kd (human BCMA on cells [4]): 2.3 nM
Kd (human BCMA on cells [5]): 3.9 nM
Kd (human BCMA on cells [6]): 1.6 nM
binding result (human BAFF-R on cells): no binding (tested: 67 nM)
binding result (human TACI on cells): no binding (tested: 67 nM)
Kd (human BCMA on cells [8]): 2.4 nM
Kd (human BCMA on cells [9]): 1.2 nM
B1: Conjugate 4 (antibody, human IgG1, kappa, V domains shown)
VH: EVQLVESGGGLVQPGGSLRLSCAASGFNISAPGIHWVRQAPGKGLEWVGFINPAGGYTDYADSVKGRFTISADTSKNTAYLQMNSLRAEDTAVYYCARDYIRQYWTYVLDYWGQGTLVTVSS
VL: not shown
modifications: p-azidomethyl-phenylalanine in place of HC-Y180 and HC-F404 (EU numbering), each bonded to a non-cleavable maytansine linker-warhead (Conjugate M); DAR4
notes: also called Conjugate 4 ADC; SP8919 ADC
cell killing EC50, ARP-1, no competing reagent (human BCMA on cells [1]): 0.7 nM
cell killing EC50, NCI-H929, no competing reagent (human BCMA on cells [1]): 0.9 nM
cell killing EC50, OPM2, no competing reagent (human BCMA on cells [1]): 3.3 nM
cell killing EC50, U266B1, no competing reagent (human BCMA on cells [1]): 0.9 nM
cell killing EC50, NCI-H929, Experiment 1 (human BCMA on cells [2]): 0.7 nM
cell killing EC50, NCI-H929, Experiment 2 (human BCMA on cells [2]): 0.8 nM
cell killing EC50, OPM2, Experiment 1 (human BCMA on cells [2]): 1.7 nM
cell killing EC50, OPM2, Experiment 2 (human BCMA on cells [2]): 2 nM
cell killing EC50, U266B1, Experiment 1 (human BCMA on cells [2]): 0.7 nM
cell killing EC50, U266B1, Experiment 2 (human BCMA on cells [2]): 0.8 nM
cell killing EC50, NCI-H929, Experiment 1 (human BCMA on cells [7]): 0.8 nM
cell killing EC50, NCI-H929, Experiment 2 (human BCMA on cells [7]): 0.8 nM
cell killing EC50, OPM2, Experiment 1 (human BCMA on cells [7]): 1.7 nM
cell killing EC50, OPM2, Experiment 2 (human BCMA on cells [7]): 1.8 nM
cell killing EC50, U266B1, Experiment 1 (human BCMA on cells [7]): 0.8 nM
cell killing EC50, U266B1, Experiment 2 (human BCMA on cells [7]): 0.9 nM

Kd (human BCMA on cells [10]): 2.1 nM
binding result (mouse BCMA on cells): no binding (tested: 200 nM)
Kd (cynomolgus BCMA on cells): 2.8 nM
Kd (human BCMA on cells [3]): 1.3 nM
Kd (human BCMA on cells [4]): 1.3 nM
Kd (human BCMA on cells [6]): 0.9 nM
Kd (human BCMA on cells [8]): 0.9 nM
Kd (human BCMA on cells [9]): 1 nM
B2: 2265-F02 Y180/F404 (unconjugated Ab) (antibody, human IgG1, kappa, V domains shown)
VH: EVQLVESGGGLVQPGGSLRLSCAASGFNISAPGIHWVRQAPGKGLEWVGFINPAGGYTDYADSVKGRFTISADTSKNTAYLQMNSLRAEDTAVYYCARDYIRQYWTYVLDYWGQGTLVTVSS
VL: not shown
modifications: p-azidomethyl-phenylalanine in place of HC-Y180 and HC-F404 (EU numbering), unconjugated
notes: also called unconjugated anti-BCMA antibody, 2265-F02; unconjugated antibody version of Conjugate 4
